# Measurements from article PMC4164784, “4E-BPs require non-canonical 4E-binding motifs and a lateral surface of eIF4E to repress translation” (Nature Communications, 2014).
# No end group written: not given here.
# T1: eIF4E–eIF4G complex (eIF4E WT; eIF4G residues 578–650) (Drosophila melanogaster, UniProt P48598)
# T1 construct: full-length eIF4E (WT or the II-AA mutant) containing an N-terminal SNH-tag was coexpressed; made in house; host or cells: E. coli BL21 Star (DE3), coexpression
# T1 sequence (P48598 1-248 isoform P48598-2): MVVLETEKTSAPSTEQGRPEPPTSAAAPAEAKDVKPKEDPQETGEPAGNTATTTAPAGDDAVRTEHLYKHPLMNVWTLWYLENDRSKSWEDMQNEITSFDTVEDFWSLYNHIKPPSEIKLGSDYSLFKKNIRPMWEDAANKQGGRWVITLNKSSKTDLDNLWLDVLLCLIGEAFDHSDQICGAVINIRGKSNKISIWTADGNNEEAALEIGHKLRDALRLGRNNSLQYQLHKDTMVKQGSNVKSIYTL
# B1: CUP: Dm CUP (1–1117), Q9VMA3; residues 311–440 in pull-down assays (protein)
# chain: MQMAEAEQENGAGALKIATNAGATDRPAHQQLPLPVEDQQDEVLTPAEKGKFEYPPPPPPPTPVQAPLATKATALNASQEHDDDEANSEKWEDPCAPPPPPPLPTSAFLATGLGYLKLPAFKLKDALEKAITKLEANKRTLKASPESSRSIKNKNVVALEMLPRRSNPETIGDGSMLASTSTAVMLQTKKPAVIVEMERRCKIINLLAKQNQILESISGEAIPMHGPSKHLHEDEGLTLQVLSARASTPYTQPSSMLSCTAVSCDLEHDSPRKQVASKEAVPEQQSSQVQQKRPPSTGIHKPGSLRAPKAVRPTTAPVVSSKPVKSYTRSRLMDIRNGMFNALMHRSKESFVMPRIATCDDIELEGRLRRMNIWRTSDGTRFRTRSTTANLNMNNNNNNECMPAFFKNKNKPNLISDESIIQSQPPQPQTEFQDPAIVNQRRIGSGRLNHSKWGYNDEDYHSYHNGKSQHMEEVNSKNSKNMTVLQFFDNGEISSQPQRRPNTPVMGMSINRSENDTLHSNESSEDLSRANENYVKRVMSGFLVVSKPKSRDVEDRHHRRYRNQNEEPEWFSCGPTSRLDTIELCGFDEDEEKMLKEGNKNHGLGETERETSKQKMDHKYKWTHAEPMGRSKYMPKHDTNNNHNVENMNNVMATEHQQQKEEKRPGSGRSFQFDKFNQSQQNYESSSYVNHQQPPQTQPQQMQQQSNTNTNNSKFMSFFANEGNSSSSSLNEFFKQAINQGHGNNPEQPKSLGHIGQMPSVDQLEAKWRRNSLNNVGETANKQTDNFQKLIGSLSSAKPQSQAVGYDAISNFIMQQQQYQQQQQKQHLIIQQQQQHTAFLASLQLKAILGRADTQLLLLRLTKGEISKHGLLVQLANPRLTDMDREAITAVLQFTNTQQQQQQHKQQLDMLSSTVIASQLQNLHNLAIVQQTLAARQQPQHNPQTQAPHQLSQEDLQAHANVIMRNAVMKRKIEEQTSKLINGGAKHQAQQQYLNRGQQRQARPDANSNALLHALISGGGNNHASGYPMNGQPQKHHSNLRFGDNQNFQSFESNQPHFATQYKQQYQQSQQQHPHQQPQQLNSLHQNNAGAVNSFNKAQMQAQSAISMLPNSGDEFH
# modifications: left off: GFP, end not stated, kept
# notes: Dm CUP (1–1117), Q9VMA3; residues 311–440 in pull-down assays
# B2: MBP-eIF4G: MBP-eIF4G (residues 578–650) (protein)
# chain: PETTLNDKQDSTDLKVKVSAKISSIINYNEGQWSPNNPSGKKQYDREQLLQLREVKASRIQPEVKNVSILPQP
# modifications: left off: MBP, N-terminal, kept | GB1, C-terminal, kept
# Legend:
# [1] = test system: eIF4E (residues 69–248); experiment: MBP pull-down of purified eIF4E (69–248); format: binding, Drosophila melanogaster; details: MBP- and GB1-tagged fragments, 1 h at 4 °C, SDS–PAGE Coomassie, no eIF4G present
# Method: In Fig. 2c, eIF4G (residues 578–650) and the C+NC peptides of CUP, Thor and 4E-T were expressed with a N-terminal MBP and a C-terminal GB1 tag. The bacterial cells were resuspended in 5 ml of lysis buffer containing 50 mM HEPES (pH 7.2), 200 mM NaCl and 2 mM DTT and lysed by sonication. Purified eIF4E (residues 69–248) was added to the cleared lysates (40–80 μl), adjusted to 0.3 ml with lysis buffer and incubated with 30 μL of amylose resin for 1 h at 4 °C. The beads were washed three times with lysis buffer and eluted with 64 μl of the same buffer containing 25 mM maltose. The proteins were analyzed by 15% SDS–PAGE followed by Coomassie blue staining.
# [2] = target: T1, eIF4E–eIF4G complex (eIF4E WT; eIF4G residues 578–650); experiment: Competition assay, displacement of GST-eIF4G from preassembled eIF4E (WT)–eIF4G complexes; format: biochemical; details: Fig. 5a,c; fivefold molar excess of MBP-tagged competitor, 30 min at 4 °C, m7GTP or Strep-Tactin pull down
# Method: (§1) For the competition assays shown in Figs 5a,c and 6a,b, complexes containing SHN- or MBP-tagged eIF4E (WT or II-AA mutant) bound to GST-eIF4G (residues 578–650), GST-Thor (full length), GST-4E-T (residues 1–58) or GST-CUP (311–440) were obtained by coexpressing the corresponding proteins in E. coli BL21 (DE3) STAR cells (30 ml culture). The cells were resuspended in lysis buffer (5 ml) that was supplemented with EDTA-free protease inhibitor (Roche) and 1 mg ml^−1 lysozyme and lysed by sonication. The cleared lysates were incubated with 400 μl of Protino Glutathione Agarose 4B (Macherey-Nagel) for 1 h. The beads were washed three times with lysis buffer, and the proteins were eluted after 10 min of incubation with lysis buffer containing 25 mM L-glutathione. The protein complexes were stored at −20 °C or used in competition assays.
# The purified recombinant complexes were mixed with excess amounts of the indicated purified competitor proteins (Fig. 5c) or with bacterial lysates expressing the competitor proteins (Figs 5a and 6) and incubated for 30 min at 4 °C. After incubation, 20 μl of immobilized γ-Aminophenyl-m^7GTP or Strep-Tactin Sepharose (IBA), were added to the samples and incubated for another 40 min at 4 °C. The beads were washed three times with lysis buffer and eluted with lysis buffer containing 2.5 mM desthiobiotin (Strep-Tactin Sepharose) or with 20 μl of SDS–PAGE loading buffer (Aminophenyl-m^7GTP beads). The proteins were analyzed by 10–15% SDS–PAGE followed by staining with Coomassie blue staining. […]
# [3] = test system: endogenous eIF4E and HA-tagged 4E-BPs in S2 cells; experiment: Immunofluorescence localization in S2 cells; format: cell-based, Drosophila melanogaster
# Method: S2 cells expressing HA-tagged versions of CUP, Thor and 4E-T or the indicated mutants were treated with Leptomycin B (100 nM; Sigma) or methanol as a control for 12 h. After the LMB treatment, the cells were allowed to adhere to poly-D-lysine–coated coverslips for 15 min and were fixed with 2% paraformaldehyde for 10 min. The cells were then permeabilized with 0.1% Triton X-100 in PBS (10 min) and stained with affinity-purified monoclonal anti-HA (Covance 1:1,000) and polyclonal anti-eIF4E (1:2,000) antibodies in PBS containing 1% BSA for 1 h. Alexa Fluor 594-labeled goat anti-rabbit and 488-labeled anti-mouse antibodies (Invitrogen) were used at dilutions of 1:1,000 and 1:2,000, respectively. The cells were mounted using Fluoromount-G (Southern Biotech). The images were acquired at room temperature using a confocal microscope (TCS SP2; Leica) that was fitted with a Plan-Apochromat × 100 NA 1.40 oil immersion objective and a series of three photomultipliers (Hamamatsu Photonics) controlled with the Leica confocal software (version 2.61). The images were prepared using Photoshop (Adobe). […]
# Thor) independent experiments. […] Confocal fluorescent […]
# micrographs of fixed S2 cells expressing HA-4E-T and GFP-Tral. The localization of HA-4E-T was determined by indirect immunofluorescence using an anti-HA antibody. The merged pictures show the HA signal in red and the GFP-Tral signal in green. Bar: 5 μm.
# [4] = test system: eIF4E II-AA (lateral surface mutant); experiment: Coimmunoprecipitation with HA-eIF4E II-AA in S2 cells; format: cell-based, Drosophila melanogaster; details: HA-eIF4E II-AA vs WT, western blot
# Method: The coimmunoprecipitations assays were performed as previously described. For the pull downs using m^7GTP beads, 25 μl of immobilized γ-aminophenyl-m^7GTP (C10-spacer—Jena Bioscience) beads was added to the cell lysates and the mixtures were rotated for 1 h at 4 °C. The beads were washed three times with NET buffer (50 mM Tris (pH 7.4), 150 mM NaCl, 1 mM EDTA and 0.1% Triton X-100). The bound proteins were eluted with 2 × SDS–polyacrylamide gel electrophoresis (SDS–PAGE) sample buffer and analyzed by western blotting (WB). All of the WB experiments were developed with the ECL western blotting detection system (GE Healthcare) as recommended by the manufacturer. The antibodies used in this study are listed in Supplementary Table 2.
# [5] = test system: eIF4E II-AA mutant (full length); experiment: GST/MBP pull-down of full-length eIF4E II-AA mutant, coexpressed in E. coli; format: binding, Drosophila melanogaster; details: recombinant CUP (311–440), Thor (full length), 4E-T (1–58) or eIF4G (578–650), WT or mutant, SDS–PAGE
# Method: For the pull-down assays shown in Fig. 3 and Supplementary Fig. 6a, the full-length His6- or SHN-tagged eIF4E (WT or II-AA mutant) was coexpressed with GST or MBP-tagged protein fragments, including CUP (residues 311–440), Thor (full length), 4E-T (residues 1–58) or eIF4G (residues 578–650) in E. coli BL21 (DE3) STAR cells in autoinducing medium[44] overnight at 20 °C. The cells were resuspended in lysis buffer (20 mM Tris–HCl (pH 7.5), 100 mM NaCl, 1 mM DTT) supplemented with EDTA-free protease inhibitor (Roche) and lysed by sonication. The cleared lysates were incubated for 1 h with 20 μl of Protino Glutathione Agarose 4B beads (Macherey-Nagel) or amylose resin (New England Biolabs). The beads were washed three times with lysis buffer, and the bound proteins were eluted with lysis buffer containing 25 mM L-glutathione or 25 mM maltose for 15 min. The proteins were analyzed by 10–15% SDS–PAGE followed by Coomassie blue staining.
# [6] = test system: endogenous eIF4E; experiment: Coimmunoprecipitation / m7GTP pull-down with endogenous eIF4E in S2 cell lysates; format: cell-based, Drosophila melanogaster; details: western blot
# Procedure, shortened: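 S2 cell lysates expressing HA-tagged 4E-BPs (CUP, Thor, 4E-T), eIF4G or mutants, immunoprecipitated with anti-eIF4E or anti-HA antibodies, or pulled down with m7GTP beads for 1 h at 4 °C. Washes in NET buffer (50 mM Tris pH 7.4, 150 mM NaCl, 1 mM EDTA, 0.1% Triton X-100). Bound proteins detected by anti-HA/anti-eIF4E western blot; pre-immune serum and HA-MBP as negative controls.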
# [7] = test system: eIF4E W106A (dorsal surface mutant); details: known effect of W106A substitution; cited from earlier work
# [8] = test system: eIF4E (WT) bound to GST-CUP, GST-Thor, GST-4E-T or GST-eIF4G; experiment: Competition by MBP-eIF4G with 4E-BPs or eIF4G bound to WT eIF4E; format: biochemical, Drosophila melanogaster; details: excess MBP-eIF4G (residues 578–650), 30 min at 4 °C, Strep-Tactin pull down
# Method: as §1
# (§2) The purified recombinant complexes were mixed with excess amounts of the indicated purified competitor proteins (Fig. 5c) or with bacterial lysates expressing the competitor proteins (Figs 5a and 6) and incubated for 30 min at 4 °C. After incubation, 20 μl of immobilized γ-Aminophenyl-m^7GTP or Strep-Tactin Sepharose (IBA), were added to the samples and incubated for another 40 min at 4 °C. […] The proteins were analyzed by 10–15% SDS–PAGE followed by staining with Coomassie blue staining.
# [9] = test system: eIF4E II-AA mutant bound to GST-4E-BP; experiment: Competition by MBP-eIF4G with 4E-BPs bound to eIF4E II-AA mutant; format: biochemical, Drosophila melanogaster; details: 30 min at 4 °C
# Method: as §1, §2
molecule,measurement,setting,value
"CUP NC: CUP residues 362–376, non-canonical motif, MBP/GB1 fusion (IELEGRLRRMNIWRT; also: MBP/GB1 fusion; UniProt Q9VMA3 362-376, looked up, fragment)",pull down of purified eIF4E (in words),[1],bind to eIF4E in the absence of eIF4G
same,competition with eIF4G for eIF4E WT (in words),[2],did not compete with eIF4G
B1,nuclear accumulation of endogenous eIF4E upon LMB (in words),"[3]; S2 cells expressing 4E-BP or mutant, LMB 100 nM, 12 h",endogenous eIF4E accumulated in the nucleus
same,localization of endogenous eIF4E (in words),"[3]; S2 cells overexpressing 4E-BP or mutant, −LMB",evenly distributed in the cytoplasm
same,nuclear accumulation of 4E-BP upon LMB (in words),"[3]; S2 cells, LMB 100 nM, 12 h",nuclear accumulation
same,localization of the 4E-BP (in words),"[3]; S2 cells, steady-state, −LMB",distributed evenly throughout the cytoplasm
same,association with eIF4E II-AA (in words),[4],disrupted the association
same,binding to eIF4E II-AA mutant (in words),[5],pulled down comparable amounts of WT and mutant eIF4E
same,interaction with endogenous eIF4E (in words),[6],interacted with endogenous eIF4E
same,binding to eIF4E W106A (in words),[7],abolishes the binding
B2,displacement of proteins bound to WT eIF4E (in words),[8],"did not displace CUP, Thor, 4E-T or eIF4G bound to WT eIF4E"
same,displacement of CUP bound to eIF4E II-AA (in words),[9]; excess MBP-eIF4G (residues 578–650) vs GST-CUP (311–440),partially displaced CUP
same,displacement of Thor bound to eIF4E II-AA (in words),[9]; excess MBP-eIF4G (residues 578–650) vs GST-Thor (full length),completely displaced full-length Thor
